# Laboratory results taken from patent US9657062B2, “Ghrelin analogues” (Zealand Pharma A/S, priority 2012, dated 2017).
# *1 amine or outer side, *2 acyl side, *3 side chain or, on linkers, in order; H or OH if unused. Side-chain parts run from the residue outwards. [ ]: non-standard residue; d: D form. The star is where a group is joined. γGlu = O=C(O)[C@H](CCC(=O)[*:2])N[*:1]; Palmitoyl = CCCCCCCCCCCCCCCC(=O)*; Octanoyl = CCCCCCCC(=O)*; Dap = NC[C@H](N)C(=O)O; Octyl = CCCCCCCC*
# Molecular target: human growth hormone secretagogue receptor type 1a (human, UniProt Q92847 1-366)
# Sequence (Q92847 whole entry): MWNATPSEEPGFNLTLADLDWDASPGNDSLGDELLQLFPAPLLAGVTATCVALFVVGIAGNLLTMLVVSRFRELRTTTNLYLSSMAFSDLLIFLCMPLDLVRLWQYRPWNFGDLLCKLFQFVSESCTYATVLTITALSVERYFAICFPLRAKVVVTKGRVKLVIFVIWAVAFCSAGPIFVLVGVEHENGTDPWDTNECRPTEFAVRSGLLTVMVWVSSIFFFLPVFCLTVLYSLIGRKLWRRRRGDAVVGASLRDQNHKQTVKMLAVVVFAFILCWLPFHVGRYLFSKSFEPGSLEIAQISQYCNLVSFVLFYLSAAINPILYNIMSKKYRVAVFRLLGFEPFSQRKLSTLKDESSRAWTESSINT
# Experiment: cell-based or functional assay
row,Binder,EC50 (nM); Ca2+ induction in HEK293 cells stably expressing the human ghrelin receptor [nM]
1,H-PSS(Octanoyl)FLSPEHQRVQQRSESKKPPAKLQPR-NH2 (SMILES CCCCCCCC(=O)OC[C@H](NC(=O)[C@H](CO)NC(=O)[C@@H]1CCCN1)C(=O)N[C@@H](Cc1ccccc1)C(=O)N[C@@H](CC(C)C)C(=O)N[C@@H](CO)C(=O)N1CCC[C@H]1C(=O)N[C@@H](CCC(=O)O)C(=O)N[C@@H](Cc1c[nH]cn1)C(=O)N[C@@H](CCC(N)=O)C(=O)N[C@@H](CCCNC(=N)N)C(=O)N[C@H](C(=O)N[C@@H](CCC(N)=O)C(=O)N[C@@H](CCC(N)=O)C(=O)N[C@@H](CCCNC(=N)N)C(=O)N[C@@H](CO)C(=O)N[C@@H](CCC(=O)O)C(=O)N[C@@H](CO)C(=O)N[C@@H](CCCCN)C(=O)N[C@@H](CCCCN)C(=O)N1CCC[C@H]1C(=O)N1CCC[C@H]1C(=O)N[C@@H](C)C(=O)N[C@@H](CCCCN)C(=O)N[C@@H](CC(C)C)C(=O)N[C@@H](CCC(N)=O)C(=O)N1CCC[C@H]1C(=O)N[C@@H](CCCNC(=N)N)C(N)=O)C(C)C) [H-PS-S(octanoyl)-FLSPEHQRVQQRSESKKPPAKLQPR-NH2],0.182
2,H-PSS(Octyl)FLSPEHSRVSSRKESSKPPAKLSPR-NH2 (SMILES CCCCCCCCOC[C@H](NC(=O)[C@H](CO)NC(=O)[C@@H]1CCCN1)C(=O)N[C@@H](Cc1ccccc1)C(=O)N[C@@H](CC(C)C)C(=O)N[C@@H](CO)C(=O)N1CCC[C@H]1C(=O)N[C@@H](CCC(=O)O)C(=O)N[C@@H](Cc1c[nH]cn1)C(=O)N[C@@H](CO)C(=O)N[C@@H](CCCNC(=N)N)C(=O)N[C@H](C(=O)N[C@@H](CO)C(=O)N[C@@H](CO)C(=O)N[C@@H](CCCNC(=N)N)C(=O)N[C@@H](CCCCN)C(=O)N[C@@H](CCC(=O)O)C(=O)N[C@@H](CO)C(=O)N[C@@H](CO)C(=O)N[C@@H](CCCCN)C(=O)N1CCC[C@H]1C(=O)N1CCC[C@H]1C(=O)N[C@@H](C)C(=O)N[C@@H](CCCCN)C(=O)N[C@@H](CC(C)C)C(=O)N[C@@H](CO)C(=O)N1CCC[C@H]1C(=O)N[C@@H](CCCNC(=N)N)C(N)=O)C(C)C) [H-PS-S(O-octyl)-FLSPEHSRVSSRKESSKPPAKLSPR-NH2],0.359
3,H-PSS(Octyl)FLSPEHSRPSSRPESSSPPAKLSPR-NH2 (SMILES CCCCCCCCOC[C@H](NC(=O)[C@H](CO)NC(=O)[C@@H]1CCCN1)C(=O)N[C@@H](Cc1ccccc1)C(=O)N[C@@H](CC(C)C)C(=O)N[C@@H](CO)C(=O)N1CCC[C@H]1C(=O)N[C@@H](CCC(=O)O)C(=O)N[C@@H](Cc1c[nH]cn1)C(=O)N[C@@H](CO)C(=O)N[C@@H](CCCNC(=N)N)C(=O)N1CCC[C@H]1C(=O)N[C@@H](CO)C(=O)N[C@@H](CO)C(=O)N[C@@H](CCCNC(=N)N)C(=O)N1CCC[C@H]1C(=O)N[C@@H](CCC(=O)O)C(=O)N[C@@H](CO)C(=O)N[C@@H](CO)C(=O)N[C@@H](CO)C(=O)N1CCC[C@H]1C(=O)N1CCC[C@H]1C(=O)N[C@@H](C)C(=O)N[C@@H](CCCCN)C(=O)N[C@@H](CC(C)C)C(=O)N[C@@H](CO)C(=O)N1CCC[C@H]1C(=O)N[C@@H](CCCNC(=N)N)C(N)=O) [H-PS-S(O-octyl)-FLSPEHSRPSSRPESSSPPAKLSPR-NH2],0.642
4,H-PSS(Octanoyl)FLSPEHQRVQQRKESKKPPAKLQPR-OH [H-PS-S(O-octanoyl)-FLSPEHQRVQQRKESKKPPAKLQPR-OH],0.298
5,H-PSS(Octyl)FLSPEHSRVSSRKESKSPPAKLSPR-NH2 (SMILES CCCCCCCCOC[C@H](NC(=O)[C@H](CO)NC(=O)[C@@H]1CCCN1)C(=O)N[C@@H](Cc1ccccc1)C(=O)N[C@@H](CC(C)C)C(=O)N[C@@H](CO)C(=O)N1CCC[C@H]1C(=O)N[C@@H](CCC(=O)O)C(=O)N[C@@H](Cc1c[nH]cn1)C(=O)N[C@@H](CO)C(=O)N[C@@H](CCCNC(=N)N)C(=O)N[C@H](C(=O)N[C@@H](CO)C(=O)N[C@@H](CO)C(=O)N[C@@H](CCCNC(=N)N)C(=O)N[C@@H](CCCCN)C(=O)N[C@@H](CCC(=O)O)C(=O)N[C@@H](CO)C(=O)N[C@@H](CCCCN)C(=O)N[C@@H](CO)C(=O)N1CCC[C@H]1C(=O)N1CCC[C@H]1C(=O)N[C@@H](C)C(=O)N[C@@H](CCCCN)C(=O)N[C@@H](CC(C)C)C(=O)N[C@@H](CO)C(=O)N1CCC[C@H]1C(=O)N[C@@H](CCCNC(=N)N)C(N)=O)C(C)C) [H-PS-S(O-octyl)-FLSPEHSRVSSRKESKSPPAKLSPR-NH2],0.296
6,H-PSS(Octyl)FLSPEHSRVSSRPESSSPPAKLSPR-NH2 (SMILES CCCCCCCCOC[C@H](NC(=O)[C@H](CO)NC(=O)[C@@H]1CCCN1)C(=O)N[C@@H](Cc1ccccc1)C(=O)N[C@@H](CC(C)C)C(=O)N[C@@H](CO)C(=O)N1CCC[C@H]1C(=O)N[C@@H](CCC(=O)O)C(=O)N[C@@H](Cc1c[nH]cn1)C(=O)N[C@@H](CO)C(=O)N[C@@H](CCCNC(=N)N)C(=O)N[C@H](C(=O)N[C@@H](CO)C(=O)N[C@@H](CO)C(=O)N[C@@H](CCCNC(=N)N)C(=O)N1CCC[C@H]1C(=O)N[C@@H](CCC(=O)O)C(=O)N[C@@H](CO)C(=O)N[C@@H](CO)C(=O)N[C@@H](CO)C(=O)N1CCC[C@H]1C(=O)N1CCC[C@H]1C(=O)N[C@@H](C)C(=O)N[C@@H](CCCCN)C(=O)N[C@@H](CC(C)C)C(=O)N[C@@H](CO)C(=O)N1CCC[C@H]1C(=O)N[C@@H](CCCNC(=N)N)C(N)=O)C(C)C) [H-PS-S(O-octyl)-FLSPEHSRVSSRPESSSPPAKLSPR-NH2],0.525
7,H-PSS(Octyl)FLSPEHSRVSSRKESSSPPAKLSPR-NH2 (SMILES CCCCCCCCOC[C@H](NC(=O)[C@H](CO)NC(=O)[C@@H]1CCCN1)C(=O)N[C@@H](Cc1ccccc1)C(=O)N[C@@H](CC(C)C)C(=O)N[C@@H](CO)C(=O)N1CCC[C@H]1C(=O)N[C@@H](CCC(=O)O)C(=O)N[C@@H](Cc1c[nH]cn1)C(=O)N[C@@H](CO)C(=O)N[C@@H](CCCNC(=N)N)C(=O)N[C@H](C(=O)N[C@@H](CO)C(=O)N[C@@H](CO)C(=O)N[C@@H](CCCNC(=N)N)C(=O)N[C@@H](CCCCN)C(=O)N[C@@H](CCC(=O)O)C(=O)N[C@@H](CO)C(=O)N[C@@H](CO)C(=O)N[C@@H](CO)C(=O)N1CCC[C@H]1C(=O)N1CCC[C@H]1C(=O)N[C@@H](C)C(=O)N[C@@H](CCCCN)C(=O)N[C@@H](CC(C)C)C(=O)N[C@@H](CO)C(=O)N1CCC[C@H]1C(=O)N[C@@H](CCCNC(=N)N)C(N)=O)C(C)C) [H-PS-S(O-octyl)-FLSPEHSRVSSRKESSSPPAKLSPR-NH2],0.454

# More lines, now with the values ahead:
row,EC50 (nM); Ca2+ induction in HEK293 cells stably expressing the human ghrelin receptor [nM],Binder
1,0.149,H-PSS(Octanoyl)FLSPEHQSVQQRKESKKPPAKLQPR-NH2 (SMILES CCCCCCCC(=O)OC[C@H](NC(=O)[C@H](CO)NC(=O)[C@@H]1CCCN1)C(=O)N[C@@H](Cc1ccccc1)C(=O)N[C@@H](CC(C)C)C(=O)N[C@@H](CO)C(=O)N1CCC[C@H]1C(=O)N[C@@H](CCC(=O)O)C(=O)N[C@@H](Cc1c[nH]cn1)C(=O)N[C@@H](CCC(N)=O)C(=O)N[C@@H](CO)C(=O)N[C@H](C(=O)N[C@@H](CCC(N)=O)C(=O)N[C@@H](CCC(N)=O)C(=O)N[C@@H](CCCNC(=N)N)C(=O)N[C@@H](CCCCN)C(=O)N[C@@H](CCC(=O)O)C(=O)N[C@@H](CO)C(=O)N[C@@H](CCCCN)C(=O)N[C@@H](CCCCN)C(=O)N1CCC[C@H]1C(=O)N1CCC[C@H]1C(=O)N[C@@H](C)C(=O)N[C@@H](CCCCN)C(=O)N[C@@H](CC(C)C)C(=O)N[C@@H](CCC(N)=O)C(=O)N1CCC[C@H]1C(=O)N[C@@H](CCCNC(=N)N)C(N)=O)C(C)C) [H-PS-S(octanoyl)-FLSPEHQSVQQRKESKKPPAKLQPR-NH2]
2,0.341,H-PSS(Octyl)FLSPEHSRPSSR-NH2 (SMILES CCCCCCCCOC[C@H](NC(=O)[C@H](CO)NC(=O)[C@@H]1CCCN1)C(=O)N[C@@H](Cc1ccccc1)C(=O)N[C@@H](CC(C)C)C(=O)N[C@@H](CO)C(=O)N1CCC[C@H]1C(=O)N[C@@H](CCC(=O)O)C(=O)N[C@@H](Cc1c[nH]cn1)C(=O)N[C@@H](CO)C(=O)N[C@@H](CCCNC(=N)N)C(=O)N1CCC[C@H]1C(=O)N[C@@H](CO)C(=O)N[C@@H](CO)C(=O)N[C@@H](CCCNC(=N)N)C(N)=O) [H-PS-S(O-octyl)-FLSPEHSRPSSR-NH2]
3,0.566,H-PS[Dap](Octanoyl)FLSPEHSRVSSRKESK([γGlu-Palmitoyl])KPPA-NH2 (SMILES CCCCCCCCCCCCCCCC(=O)N[C@@H](CCC(=O)NCCCC[C@H](NC(=O)[C@H](CO)NC(=O)[C@H](CCC(=O)O)NC(=O)[C@H](CCCCN)NC(=O)[C@H](CCCNC(=N)N)NC(=O)[C@H](CO)NC(=O)[C@H](CO)NC(=O)[C@@H](NC(=O)[C@H](CCCNC(=N)N)NC(=O)[C@H](CO)NC(=O)[C@H](Cc1c[nH]cn1)NC(=O)[C@H](CCC(=O)O)NC(=O)[C@@H]1CCCN1C(=O)[C@H](CO)NC(=O)[C@H](CC(C)C)NC(=O)[C@H](Cc1ccccc1)NC(=O)[C@H](CNC(=O)CCCCCCC)NC(=O)[C@H](CO)NC(=O)[C@@H]1CCCN1)C(C)C)C(=O)N[C@@H](CCCCN)C(=O)N1CCC[C@H]1C(=O)N1CCC[C@H]1C(=O)N[C@@H](C)C(N)=O)C(=O)O) [H-PS-Dap(N-octanoyl)-FLSPEHSRVSSRKES-K(hexadecanoyl-isoGlu)-KPPA-NH2]
4,0.168,H-PSS(Octanoyl)FLSPEHQRVQQSKESKKPPAKLQPR-NH2 (SMILES CCCCCCCC(=O)OC[C@H](NC(=O)[C@H](CO)NC(=O)[C@@H]1CCCN1)C(=O)N[C@@H](Cc1ccccc1)C(=O)N[C@@H](CC(C)C)C(=O)N[C@@H](CO)C(=O)N1CCC[C@H]1C(=O)N[C@@H](CCC(=O)O)C(=O)N[C@@H](Cc1c[nH]cn1)C(=O)N[C@@H](CCC(N)=O)C(=O)N[C@@H](CCCNC(=N)N)C(=O)N[C@H](C(=O)N[C@@H](CCC(N)=O)C(=O)N[C@@H](CCC(N)=O)C(=O)N[C@@H](CO)C(=O)N[C@@H](CCCCN)C(=O)N[C@@H](CCC(=O)O)C(=O)N[C@@H](CO)C(=O)N[C@@H](CCCCN)C(=O)N[C@@H](CCCCN)C(=O)N1CCC[C@H]1C(=O)N1CCC[C@H]1C(=O)N[C@@H](C)C(=O)N[C@@H](CCCCN)C(=O)N[C@@H](CC(C)C)C(=O)N[C@@H](CCC(N)=O)C(=O)N1CCC[C@H]1C(=O)N[C@@H](CCCNC(=N)N)C(N)=O)C(C)C) [H-PS-S(octanoyl)-FLSPEHQRVQQSKESKKPPAKLQPR-NH2]
